Experimental data from the supplement of paper PMC10567573.

B1: PPP2R2B (parent)
chain: RNTKRDVTLEASRENSKPRAILKP
B2: CAMK2A (parent)
chain: ILLVGYPPFWDEDQHRLYKQIKAG

Variants of: B1
Assay: protein stability index of a GFP-peptide fusion (GPS, HEK-293T) (PSI 1-6); higher = more stable
Conditions: c terminus: a fixed tail appended
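Also: lentivirally expressed fusions sorted by FACS into six bins by GFP to DsRed ratio, PSI derived from sequencing read proportions per bin multiplied by bin number.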

Protein stability index of substitutions, site by site:
N2: A 4.31, T 4.42, I 4.69, F 4.51, L 3.72, D 4.89, S 4.62, E 4.82, W 3.34, M 4.4, H 4.66, G 4.81, K 4.51, C 4.27, R 4.02, P 4.31, Q 4.06, V 4.1, Y 4.37
R1: N 4.79, L 4.62, M 4.44, H 4.72, P 4.27, Q 4.81, D 4.97, S 4.47, E 4.31, K 4.65, A 4.61, Y 4.22, F 4.29, C 4.88, I 4.61, T 4.99, W 4.45, V 4.44, G 4.9
T8: A 4.72, G 4.54, C 4.2, D 5.02, M 4.34, K 4.86, F 3.88, H 4.35, E 4.9, I 4.35, L 4.62
V7: G 4.83, M 4.81, T 4.81, E 4.46, Q 4.8, F 4.43, S 4.58, N 4.76, I 4.25, H 4.67, L 4.42, Y 4.63, C 3.77, R 4.59, A 4.19, K 4.6, W 4.61, P 4.98, D 4.86
R5: P 4.79, G 5.07, E 5.03, Y 4.26, W 3.87, N 4.92, K 4.62, I 4.19, V 4.91, M 3.86, F 4.44, C 4.43, D 4.68, A 5.17, S 4.49, L 4.4, H 4.85, T 4.94, Q 4.54
K4: S 4.92, N 4.77, G 4.61, R 4.54, W 3.39, V 4.19, L 4.61, E 4.6, P 4.88, D 4.72, T 4.82, C 3.8, Q 4.96, M 4.71, A 4.43, F 4.42, H 4.84, Y 4.42, I 4.29
D6: C 4.29, Y 3.79, S 4.55, E 4.49, A 4.64, Q 4.46, R 4.29, L 3.94, N 4.55, P 3.81, M 4.33, K 4.45, H 4.49, I 3.64, G 4.44, F 3.83, V 4.08, W 3.27, T 4.34
T3: M 4.35, R 4.45, L 4.64, A 4.87, G 4.29, I 4.45, C 4.55, H 4.4, V 4.57, F 4.17, P 4.53, W 4.05, N 3.95, S 4.61, K 4.91, D 4.81, Y 3.84, E 4.88, Q 4.75

Variants of: B2
Assay: as above
Conditions: c terminus: a fixed tail appended

Protein stability index of substitutions, site by site:
A23: W 3.2, T 1.27, Y 2.73, V 1.98
G24: W 1.96, Q 3.66, E 1.36, I 2.71, H 2.08, L 1.8, M 1.58, C 2.27, S 2.52, D 1.87, T 2.58, K 1.7, P 1.65, Y 2.39, V 2.81, R 2.4, A 2.05, F 1.51, N 3.14
